This passage reports binding result and Kd results from article PMC7064778 (mBio, 2020).

B5: ferric pyochelin transporter FptA (receptor)
chain: DARKDGETELPDMVISGESTSATQPPGVTTLGKVPLKPRELPQSASVIDHERLEQQNLFSLDEAMQQATGVTVQPFQLLTTAYYVRGFKVDSFELDGVPALLGNTASSPQDMAIYERVEILRGSNGLLHGTGNPAATVNLVRKRPQREFAASTTLSAGRWDRYRAEVDVGGPLSASGNVRGRAVAAYEDRDYFYDVADQGTRLLYGVTEFDLSPDTLLTVGAQYQHIDSITNMAGVPMAKDGSNLGLSRDTYLDVDWDRFKWDTYRAFGSLEQQLGGGWKGKVSAEYQEADSRLRYAGSFGAIDPQTGDGGQLMGAAYKFKSIQRSLDANLNGPVRLFGLTHELLGGVTYAQGETRQDTARFLNLPNTPVNVYRWDPHGVPRPQIGQYTSPGTTTTTQKGLYALGRIKLAEPLTLVVGGRESWWDQDTPATRFKPGRQFTPYGGLIWDFARDWSWYVSYAEVYQPQADRQTWNSEPLSPVEGKTYETGIKGELADGRLNLSLAAFRIDLENNPQEDPDHPGPPNNPFYISGGKVRSQGFELEGTGYLTPYWSLSAGYTYTSTEYLKDSQNDSGTRYSTFTPRHLLRLWSNYDLPWQDRRWSVGGGLQAQSDYSVDYRGVSMRQGGYALVNMRLGYKIDEHWTAAVNVNNLFDRTYYQSLSNPNWNNRYGEPRSFNVSLRGAF

Conditions in all cases: both partners purified
Assay [1] deals with B5. The experiment in a line: native MS.
For assay [2], the target named is B5. Briefly: SPR.
The next assay has as its target T1, PyoS5_(1–315) Δ2–9 (P. aeruginosa, UniProt Q9I4Y4 1-315, Δ2–9).
T1 construct: source: E. coli BL21(DE3), purified (HisTrap HP, Superdex 200 SEC)
The experiment in a line: SPR.

The target of another assay is T2, PyoS5_(1–315) Δ2–39 (P. aeruginosa, UniProt Q9I4Y4 1-315, Δ2–39).
T2 construct: source: E. coli BL21(DE3), purified (HisTrap HP, Superdex 200 SEC)
Briefly: SPR.

The target in the next assay is T3, PyoS5_(1–315) Δ10–13 (P. aeruginosa, UniProt Q9I4Y4 1-315, Δ10–13).
T3 construct: source: E. coli BL21(DE3), purified (HisTrap HP, Superdex 200 SEC)
The experiment in a line: SPR.

B1: PyoS5_(1–299) (domain or fragment)
chain: MSNDNEVPGSMVIVAQGPDDQYAYEVPPIDSAAVAGNMFGDLIQREIYLQKNIYYPVRSIFEQGTKEKKEINKKVSDQVDGLLKQITQGKREATRQERVDVMSAVLHKMESDLEGYKKTFTKGPFIDYEKQSSLSIYEAWVKIWEKNSWEERKKYPFQQLVRDELERAVAYYKQDSLSEAVKVLRQELNKQKALKEKEDLSQLERDYRTRKANLEMKVQSELDQAGSALPPLVSPTPEQWLERATRLVTQAIADKKQLQTTNNTLIKNSPTPLEKQKAIYNGELLVDEIASLQARLVKL
Take B1: in assay [1], the binding result is “binds”.

B2: PyoS5_(1–315) (domain or fragment)
chain: MSNDNEVPGSMVIVAQGPDDQYAYEVPPIDSAAVAGNMFGDLIQREIYLQKNIYYPVRSIFEQGTKEKKEINKKVSDQVDGLLKQITQGKREATRQERVDVMSAVLHKMESDLEGYKKTFTKGPFIDYEKQSSLSIYEAWVKIWEKNSWEERKKYPFQQLVRDELERAVAYYKQDSLSEAVKVLRQELNKQKALKEKEDLSQLERDYRTRKANLEMKVQSELDQAGSALPPLVSPTPEQWLERATRLVTQAIADKKQLQTTNNTLIKNSPTPLEKQKAIYNGELLVDEIASLQARLVKLNAETTRRRTEAERKAA
notes: source: E. coli BL21(DE3), purified (HisTrap HP, Superdex 200 SEC)
With B2, the Kd in assay [2] amounted to 6.5 ± 0.4 µM.

B3: PyoS5_(1–196) (domain or fragment)
chain: MSNDNEVPGSMVIVAQGPDDQYAYEVPPIDSAAVAGNMFGDLIQREIYLQKNIYYPVRSIFEQGTKEKKEINKKVSDQVDGLLKQITQGKREATRQERVDVMSAVLHKMESDLEGYKKTFTKGPFIDYEKQSSLSIYEAWVKIWEKNSWEERKKYPFQQLVRDELERAVAYYKQDSLSEAVKVLRQELNKQKALKE
notes: as for B2
As to B3, in assay [2], the affinity, expressed as Kd, was 7.1 ± 0.7 µM.

B4: Pyocin S5 (natural protein)
chain: MSNDNEVPGSMVIVAQGPDDQYAYEVPPIDSAAVAGNMFGDLIQREIYLQKNIYYPVRSIFEQGTKEKKEINKKVSDQVDGLLKQITQGKREATRQERVDVMSAVLHKMESDLEGYKKTFTKGPFIDYEKQSSLSIYEAWVKIWEKNSWEERKKYPFQQLVRDELERAVAYYKQDSLSEAVKVLRQELNKQKALKEKEDLSQLERDYRTRKANLEMKVQSELDQAGSALPPLVSPTPEQWLERATRLVTQAIADKKQLQTTNNTLIKNSPTPLEKQKAIYNGELLVDEIASLQARLVKLNAETTRRRTEAERKAAEEQALQDAIKFTADFYKEVTEKFGARTSEMARQLAEGARGKNIRSSAEAIKSFEKHKDALNKKLSLKDRQAIAKAFDSLDKQMMAKSLEKFSKGFGVVGKAIDAASLYQEFKISTETGDWKPFFVKIETLAAGAAASWLVGIAFATATATPIGILGFALVMAVTGAMIDEDLLEKANNLVISI
On to B4, for which, in assay [1], the binding result is recorded as “binds”.
In the case of B5, the binding result with PyoS5_(1–315) Δ2–9 and with PyoS5_(1–315) Δ10–13 was “binds” in each case. In addition, binding in the assay with PyoS5_(1–315) Δ2–39 was characterised by a dissociation constant (Kd) of 14.7 ± 0.4 µM.
